Measured values as given in the supplement of paper PMC7125110.
± gives the standard error. For some assays here: Fewer inactive variants are shown than the library holds.

B1: glmS ribozyme (parent)
chain: AUAAAAGCGCCAGAACUACAGAAAUGUAGUUGACGAGGAGGAGGUUUAUCGAAUUUUCGGCGGAUGCCUCCAAA

Key:
Settings in all cases: with glucosamine-6-phosphate
glucosamine-6-phosphate [1] = variants of: B1; assay: kcat; higher = faster cleavage; RNA array
Procedure, shortened: (§1)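 Barcoded glmS ribozyme variants on sequenced MiSeq chips were transcribed in situ by E. coli RNA polymerase and tracked through a hybridised Cy3 probe at 37 °C. Glucosamine-6-phosphate (40 μM to 10 mM) in HEPES/KCl/Mg(OAc)2 buffer was flowed in, and tiles were imaged over ~14 h. Signals were normalised to baseline and to non-cleaving reference variants; per-tile medians were fit to one- or two-exponential decays to give kobs. kcat and KM came from weighted Michaelis–Menten fits across concentrations.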

glucosamine-6-phosphate [2] = variants of: B1; assay: KM; higher = weaker cofactor use; RNA array
Procedure, shortened: as §1

glucosamine-6-phosphate [3] = variants of: B1; assay: self-cleavage kobs at 2500 uM GlcN6P; higher = faster cleavage; RNA array
Procedure, shortened: as §1

glucosamine-6-phosphate [4] = variants of: B1; assay: self-cleavage kobs at 160 uM GlcN6P; higher = faster cleavage; RNA array
Procedure, shortened: as §1

glucosamine-6-phosphate [5] = variants of: B1; assay: self-cleavage kobs at 10000 uM GlcN6P; higher = faster cleavage; RNA array
Procedure, shortened: as §1

glucosamine-6-phosphate [6] = variants of: B1; assay: self-cleavage kobs at 640 uM GlcN6P; higher = faster cleavage; RNA array
Procedure, shortened: as §1

glucosamine-6-phosphate [7] = variants of: B1; assay: self-cleavage kobs at 40 uM GlcN6P; higher = faster cleavage; RNA array
Procedure, shortened: as §1

| Variant | kcat (glucosamine-6-phosphate [1]) [s⁻¹] | KM (glucosamine-6-phosphate [2]) [µM] | self-cleavage kobs at 2500 uM GlcN6P (glucosamine-6-phosphate [3]) [s⁻¹] | self-cleavage kobs at 160 uM GlcN6P (glucosamine-6-phosphate [4]) [s⁻¹] | self-cleavage kobs at 10000 uM GlcN6P (glucosamine-6-phosphate [5]) [s⁻¹] | self-cleavage kobs at 640 uM GlcN6P (glucosamine-6-phosphate [6]) [s⁻¹] | self-cleavage kobs at 40 uM GlcN6P (glucosamine-6-phosphate [7]) [s⁻¹] |
| --- | --- | --- | --- | --- | --- | --- | --- |
| G9A G32C C67A | < 1e-05 | 304 ± 150 | < 1e-05 | – | – | – | – |
| A12U G37C | 0.000148 ± 1.2e-05 | 4210 ± 790 | 5.79e-05 ± 8.6e-06 | < 1e-05 | 0.000104 ± 9.8e-06 | – | – |
| A14U G44A | 6.83e-05 ± 2.6e-06 | 2730 ± 310 | 3.21e-05 ± 6.8e-06 | < 1e-05 | 5.38e-05 ± 6.7e-06 | – | – |
| A39C U47G | 0.00107 ± 0.00043 | – | 0.000425 ± 0.0001 | – | 0.00109 ± 0.0002 | 0.000286 ± 5.5e-05 | – |
| G29U U49G | 0.000125 ± 2e-05 | 5270 ± 1900 | 3.79e-05 ± 1.7e-05 | – | 8.25e-05 ± 1.9e-05 | – | – |
| G13U U31A | 0.000483 ± 4.9e-05 | 3730 ± 740 | 0.000216 ± 3.6e-05 | – | 0.000346 ± 3.6e-05 | 6.93e-05 ± 1.3e-05 | – |
| A6U U30A | 3.27e-05 ± 4.2e-06 | – | – | < 1e-05 | 2.86e-05 ± 1e-05 | – | < 1e-05 |
| G29C U54C | 0.00154 ± 0.00063 | – | 0.000773 ± 0.00014 | 0.000153 ± 2.5e-05 | 0.0019 ± 0.00032 | 0.000301 ± 7.9e-05 | 6.42e-05 ± 1.4e-05 |
| C10G G59A | < 1e-05 | – | – | < 1e-05 | – | – | < 1e-05 |
| G29U A64C | 1.56e-05 ± 2.5e-06 | – | – | – | – | – | < 1e-05 |
| U31C U46A | 0.000286 ± 7.3e-06 | 2230 ± 110 | 0.000152 ± 2.9e-05 | – | 0.000234 ± 3.3e-05 | 6.31e-05 ± 9.4e-06 | – |
| U57C U65G | 3.4e-05 ± 3.5e-06 | – | 3.03e-05 ± 1.3e-05 | – | 3.07e-05 ± 1.1e-05 | – | – |
| U45C U56C | 0.000492 ± 4.3e-05 | 5500 ± 810 | 0.000149 ± 3e-05 | – | 0.000319 ± 4.5e-05 | 5.37e-05 ± 1.2e-05 | – |
| G43A C67U | 0.000171 ± 1.4e-05 | 1110 ± 320 | 0.000189 ± 4.2e-05 | – | 0.000152 ± 9.9e-06 | 6.14e-05 ± 9.1e-06 | – |
| C11A A14U | 9.91e-05 ± 4.5e-06 | 947 ± 180 | 6.89e-05 ± 9.1e-06 | – | 9.18e-05 ± 8.6e-06 | 4.4e-05 ± 1e-05 | – |
| C16A G41A | 4e-05 ± 4.5e-07 | 806 ± 51 | – | – | 3.7e-05 ± 1.1e-05 | – | – |
| U46G U69C | 0.0015 ± 0.00017 | 539 ± 120 | 0.00128 ± 0.00028 | 0.000315 ± 7.8e-05 | 0.00149 ± 0.00027 | 0.00072 ± 0.00016 | 0.000136 ± 3.6e-05 |
